{"source": "the supplement of paper PMC10126150", "note": "± gives the standard deviation of the averaged measurements.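 Note: ATP exposure 15 min at 22 °C before imaging.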", "data": [{"test_system": "ATP", "test": "switch fluorescence ratio, 500 uM ATP over buffer (Cy3 cluster intensity, sum of 5 cycles each) (fold (ratio)); higher = stronger signal-on switching upon ATP binding; sequences stand for … in TCGTCGGCAGCGTCAGATGTGTATAAGAGACAGTTTTTTTTTTTTTTTTTTTTTTTTT…TC", "conditions": "aptamer strand: ATP DNA aptamer (quencher-CACCTGGGGGAGTATTGCGGAGGAAGG + anchor), 100 nM annealed; ATP concentration: 500 uM", "outline": "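Clusters carrying Cy3-labelled switching strands on a modified Illumina MiSeq flow-cell were annealed to 100 nM quencher-labelled ATP aptamer and imaged in selection buffer. They were imaged again after 15 min with 500 uM ATP at 22 °C, over five buffer/ATP cycles with NaOH stripping and re-annealing in between. For each cluster, the fluorescence ratio is the summed Cy3 intensity of the target cycles divided by that of the buffer cycles, averaged per switch-domain sequence. Clusters outside 100-1000 RFU were left out.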", "values": [{"sequence": "TTTAAACGGT", "switch fluorescence ratio": "1.03 ± 0.042"}, {"sequence": "TTTAAAGA", "switch fluorescence ratio": "0.991 ± 0.01"}, {"sequence": "TTTAAAGCGC", "switch fluorescence ratio": "1.02 ± 0.043"}, {"sequence": "TTTAAAGCTT", "switch fluorescence ratio": "1.01 ± 0.032"}, {"sequence": "TTTAAATAGC", "switch fluorescence ratio": "0.9742 ± 0.00053"}, {"sequence": "TTTAAATTG", "switch fluorescence ratio": "1 ± 0.05"}, {"sequence": "TTTAAATTTG", "switch fluorescence ratio": "1.018 ± 0.0054"}, {"sequence": "TTTAACAGGT", "switch fluorescence ratio": "1.03 ± 0.023"}, {"sequence": "TTTAACATCA", "switch fluorescence ratio": "0.984 ± 0.047"}, {"sequence": "TTTAACTAGC", "switch fluorescence ratio": "1.034 ± 0.0063"}, {"sequence": "TTTAAGACAC", "switch fluorescence ratio": "1.03 ± 0.022"}, {"sequence": "TTTAAGAGCT", "switch fluorescence ratio": "0.997 ± 0.015"}, {"sequence": "TTTAAGCACG", "switch fluorescence ratio": "1.09 ± 0.041"}, {"sequence": "TTTAAGCGAT", "switch fluorescence ratio": "1.03 ± 0.015"}, {"sequence": "TTTAAGCTGG", "switch fluorescence ratio": "0.99 ± 0.017"}, {"sequence": "TTTAAGGAGG", "switch fluorescence ratio": "1.03 ± 0.071"}, {"sequence": "TTTAAGGGGA", "switch fluorescence ratio": "0.996 ± 0.013"}, {"sequence": "TTTAAGGTAG", "switch fluorescence ratio": "0.993 ± 0.018"}, {"sequence": "TTTAAGGTAT", "switch fluorescence ratio": "0.957 ± 0.023"}, {"sequence": "TTTAAGGTTT", "switch fluorescence ratio": "0.998 ± 0.013"}, {"sequence": "TTTAAGTCGT", "switch fluorescence ratio": "0.974 ± 0.025"}, {"sequence": "TTTAAGTGGG", "switch fluorescence ratio": "1.04 ± 0.14"}, {"sequence": "TTTAAGTTGG", "switch fluorescence ratio": "0.983 ± 0.013"}, {"sequence": "TTTAATGAGC", "switch fluorescence ratio": "0.995 ± 0.014"}, {"sequence": "TTTAATGCG", "switch fluorescence ratio": "1.01 ± 0.025"}, {"sequence": "TTTAATGGGG", "switch fluorescence ratio": "1.02 ± 0.035"}, {"sequence": "TTTAATGTGG", "switch fluorescence ratio": "0.999 ± 0.03"}, {"sequence": "TTTAATTAT", "switch fluorescence ratio": "0.99 ± 0.034"}, {"sequence": "TTTAATTCGC", "switch fluorescence ratio": "1.1 ± 0.056"}, {"sequence": "TTTAATTTA", "switch fluorescence ratio": "1.01 ± 0.012"}, {"sequence": "TTTACAGATT", "switch fluorescence ratio": "0.982 ± 0.023"}, {"sequence": "TTTACAGCAT", "switch fluorescence ratio": "1.06 ± 0.14"}, {"sequence": "TTTACAGTC", "switch fluorescence ratio": "1.01 ± 0.037"}, {"sequence": "TTTACAGTGG", "switch fluorescence ratio": "1.05 ± 0.057"}, {"sequence": "TTTACATTAT", "switch fluorescence ratio": "0.981 ± 0.058"}, {"sequence": "TTTACATTGG", "switch fluorescence ratio": "1.01 ± 0.044"}, {"sequence": "TTTACCATTT", "switch fluorescence ratio": "1.024 ± 0.0018"}, {"sequence": "TTTACGAAAT", "switch fluorescence ratio": "1.08 ± 0.12"}, {"sequence": "TTTACGAGGG", "switch fluorescence ratio": "0.977 ± 0.015"}, {"sequence": "TTTACGATTA", "switch fluorescence ratio": "1.14 ± 0.067"}, {"sequence": "TTTACGGTGC", "switch fluorescence ratio": "1.25 ± 0.15"}, {"sequence": "TTTACGTAGG", "switch fluorescence ratio": "1 ± 0.024"}, {"sequence": "TTTACGTCCA", "switch fluorescence ratio": "1.1 ± 0.047"}, {"sequence": "TTTACGTGGA", "switch fluorescence ratio": "1.02 ± 0.028"}, {"sequence": "TTTACTATTG", "switch fluorescence ratio": "1.03 ± 0.03"}, {"sequence": "TTTACTCGGC", "switch fluorescence ratio": "1.08 ± 0.16"}, {"sequence": "TTTACTGGGG", "switch fluorescence ratio": "1.01 ± 0.023"}, {"sequence": "TTTACTTAGC", "switch fluorescence ratio": "1.04 ± 0.026"}, {"sequence": "TTTACTTCTA", "switch fluorescence ratio": "1.05 ± 0.017"}, {"sequence": "TTTAGAAAGT", "switch fluorescence ratio": "1.028 ± 0.0052"}, {"sequence": "TTTAGAACTC", "switch fluorescence ratio": "1.19 ± 0.3"}, {"sequence": "TTTAGAAGGT", "switch fluorescence ratio": "0.995 ± 0.026"}, {"sequence": "TTTAGAGAGT", "switch fluorescence ratio": "1.01 ± 0.018"}, {"sequence": "TTTAGAGGGA", "switch fluorescence ratio": "1.02 ± 0.019"}, {"sequence": "TTTAGAGGGT", "switch fluorescence ratio": "0.988 ± 0.013"}, {"sequence": "TTTAGATCAG", "switch fluorescence ratio": "1.03 ± 0.013"}, {"sequence": "TTTAGATCGG", "switch fluorescence ratio": "1.01 ± 0.046"}, {"sequence": "TTTAGATGAG", "switch fluorescence ratio": "0.986 ± 0.053"}, {"sequence": "TTTAGATGGA", "switch fluorescence ratio": "0.975 ± 0.021"}, {"sequence": "TTTAGATTGG", "switch fluorescence ratio": "0.9945 ± 0.0086"}, {"sequence": "TTTAGCAATG", "switch fluorescence ratio": "1.64 ± 0.34"}, {"sequence": "TTTAGCAGAG", "switch fluorescence ratio": "1.16 ± 0.28"}, {"sequence": "TTTAGCCTTT", "switch fluorescence ratio": "1.06 ± 0.11"}, {"sequence": "TTTAGCTGT", "switch fluorescence ratio": "1.1 ± 0.17"}, {"sequence": "TTTAGGCCTC", "switch fluorescence ratio": "1.01 ± 0.014"}, {"sequence": "TTTAGGCGGC", "switch fluorescence ratio": "1.03 ± 0.023"}, {"sequence": "TTTAGGCGGG", "switch fluorescence ratio": "1.05 ± 0.044"}, {"sequence": "TTTAGGGA", "switch fluorescence ratio": "0.973 ± 0.033"}, {"sequence": "TTTAGGGATG", "switch fluorescence ratio": "0.989 ± 0.0088"}, {"sequence": "TTTAGGGGAA", "switch fluorescence ratio": "1.02 ± 0.003"}, {"sequence": "TTTAGGTAGA", "switch fluorescence ratio": "1.02 ± 0.014"}, {"sequence": "TTTAGGTATT", "switch fluorescence ratio": "0.9598 ± 0.0042"}, {"sequence": "TTTAGGTTCG", "switch fluorescence ratio": "0.972 ± 0.028"}, {"sequence": "TTTAGGTTGA", "switch fluorescence ratio": "0.9957 ± 0.0012"}, {"sequence": "TTTAGTCGTA", "switch fluorescence ratio": "1.01 ± 0.021"}, {"sequence": "TTTAGTGAGG", "switch fluorescence ratio": "0.974 ± 0.03"}, {"sequence": "TTTAGTTTGC", "switch fluorescence ratio": "0.992 ± 0.024"}, {"sequence": "TTTATAAAAC", "switch fluorescence ratio": "1.01 ± 0.051"}, {"sequence": "TTTATAACAG", "switch fluorescence ratio": "0.982 ± 0.021"}, {"sequence": "TTTATAACGG", "switch fluorescence ratio": "0.988 ± 0.038"}, {"sequence": "TTTATAAGGA", "switch fluorescence ratio": "0.997 ± 0.037"}, {"sequence": "TTTATAAGGC", "switch fluorescence ratio": "0.983 ± 0.061"}, {"sequence": "TTTATAATAG", "switch fluorescence ratio": "0.991 ± 0.025"}, {"sequence": "TTTATAATAT", "switch fluorescence ratio": "1.03 ± 0.015"}, {"sequence": "TTTATACCGT", "switch fluorescence ratio": "1.026 ± 0.0028"}, {"sequence": "TTTATACTGT", "switch fluorescence ratio": "1.03 ± 0.024"}, {"sequence": "TTTATAGGTT", "switch fluorescence ratio": "1.02 ± 0.069"}, {"sequence": "TTTATATGTA", "switch fluorescence ratio": "1.01 ± 0.022"}, {"sequence": "TTTATCAAAA", "switch fluorescence ratio": "0.993 ± 0.012"}, {"sequence": "TTTATCATAA", "switch fluorescence ratio": "0.958 ± 0.017"}, {"sequence": "TTTATCCGGT", "switch fluorescence ratio": "1.01 ± 0.042"}, {"sequence": "TTTATCCGTC", "switch fluorescence ratio": "0.96 ± 0.033"}, {"sequence": "TTTATCGGG", "switch fluorescence ratio": "1.01 ± 0.044"}, {"sequence": "TTTATCGGGC", "switch fluorescence ratio": "0.989 ± 0.019"}, {"sequence": "TTTATCTGCT", "switch fluorescence ratio": "0.981 ± 0.037"}, {"sequence": "TTTATCTTTT", "switch fluorescence ratio": "1 ± 0.028"}, {"sequence": "TTTATGAACT", "switch fluorescence ratio": "1.02 ± 0.042"}, {"sequence": "TTTATGAAGG", "switch fluorescence ratio": "1 ± 0.018"}, {"sequence": "TTTATGAGAG", "switch fluorescence ratio": "1.08 ± 0.092"}, {"sequence": "TTTATGAGTT", "switch fluorescence ratio": "0.988 ± 0.029"}]}]}
